Tests used:
Type in all cases: biochemical
12‐LOX = biological target: T1, 12‐LOX (Homo sapiens, UniProt P18054); assay: inhibition of purified recombinant 12-LOX with […] AA as substrate
T1 construct: gene ALOX12
T1 sequence (P18054 1-663): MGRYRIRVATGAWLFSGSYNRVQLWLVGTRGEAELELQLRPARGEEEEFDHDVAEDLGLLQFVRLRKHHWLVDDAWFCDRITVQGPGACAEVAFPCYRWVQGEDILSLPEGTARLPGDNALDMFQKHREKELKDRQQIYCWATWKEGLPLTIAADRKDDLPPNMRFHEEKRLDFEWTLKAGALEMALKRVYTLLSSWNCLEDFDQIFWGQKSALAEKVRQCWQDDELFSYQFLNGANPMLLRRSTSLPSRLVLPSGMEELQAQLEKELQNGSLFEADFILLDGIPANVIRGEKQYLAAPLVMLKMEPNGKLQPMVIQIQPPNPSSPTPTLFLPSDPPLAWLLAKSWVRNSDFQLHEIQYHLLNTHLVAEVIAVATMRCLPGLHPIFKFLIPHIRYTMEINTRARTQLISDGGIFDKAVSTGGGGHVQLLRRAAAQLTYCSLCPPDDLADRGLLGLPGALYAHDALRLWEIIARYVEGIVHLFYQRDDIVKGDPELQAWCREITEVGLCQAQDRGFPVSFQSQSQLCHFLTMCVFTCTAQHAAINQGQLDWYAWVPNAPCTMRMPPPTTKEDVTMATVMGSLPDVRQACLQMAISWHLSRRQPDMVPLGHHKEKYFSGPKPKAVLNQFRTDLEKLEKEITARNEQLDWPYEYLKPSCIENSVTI

[1] = substrate: CCCCC[C@@H](/C=C/C=C\C/C=C\C/C=C\CCCC(=O)O)OO; assay: steady-state UV kinetics with purified human 12-LOX (kM); LC-MS product profile
[2] = substrate: CCCCC[C@@H](/C=C/C=C\C/C=C\CCCCCCC(=O)O)OO; assay: as above
[3] = substrate: CC/C=C\C[C@@H](/C=C/C=C\C/C=C\C/C=C\CCCC(=O)O)OO; assay: as above; conditions: also described as a […]‐LOX allosteric regulator that affects secondary product formation
[4] = substrate: CCCCC/C=C\C/C=C\C/C=C\CCCCCCC(=O)O; assay: steady-state UV kinetics with purified human 12-LOX (kM)
[5] = substrate: CCCCC/C=C\C/C=C\C/C=C\C/C=C\CCCC(=O)O; assay: as above
[6] = substrate: CC/C=C\C/C=C\C/C=C\C/C=C\C/C=C\CCCC(=O)O; assay: as above

Question: For `CC/C=C\C[C@H](O)/C=C/C=C\C/C=C\C/C=C\CCCC(=O)O` [15‐HEPE], which IC50 (12‐LOX) is on record?
Answer: 142 ± 11 µM

Question: For `CCCCC[C@H](O)/C=C/C=C\C/C=C\C/C=C\CCCC(=O)O` [15‐HETE], which IC50 (12‐LOX) is on record?
Answer: 46 ± 19 µM

Question: With `CCCCC[C@H](O)/C=C/C=C\C/C=C\CCCCCCC(=O)O` [15‐HETrE] as the molecule, how does the IC50 (12‐LOX) read?
Answer: 105 ± 55 µM

B1: 12‐LOX (Homo sapiens) (protein)
chain: MGRYRIRVATGAWLFSGSYNRVQLWLVGTRGEAELELQLRPARGEEEEFDHDVAEDLGLLQFVRLRKHHWLVDDAWFCDRITVQGPGACAEVAFPCYRWVQGEDILSLPEGTARLPGDNALDMFQKHREKELKDRQQIYCWATWKEGLPLTIAADRKDDLPPNMRFHEEKRLDFEWTLKAGALEMALKRVYTLLSSWNCLEDFDQIFWGQKSALAEKVRQCWQDDELFSYQFLNGANPMLLRRSTSLPSRLVLPSGMEELQAQLEKELQNGSLFEADFILLDGIPANVIRGEKQYLAAPLVMLKMEPNGKLQPMVIQIQPPNPSSPTPTLFLPSDPPLAWLLAKSWVRNSDFQLHEIQYHLLNTHLVAEVIAVATMRCLPGLHPIFKFLIPHIRYTMEINTRARTQLISDGGIFDKAVSTGGGGHVQLLRRAAAQLTYCSLCPPDDLADRGLLGLPGALYAHDALRLWEIIARYVEGIVHLFYQRDDIVKGDPELQAWCREITEVGLCQAQDRGFPVSFQSQSQLCHFLTMCVFTCTAQHAAINQGQLDWYAWVPNAPCTMRMPPPTTKEDVTMATVMGSLPDVRQACLQMAISWHLSRRQPDMVPLGHHKEKYFSGPKPKAVLNQFRTDLEKLEKEITARNEQLDWPYEYLKPSCIENSVTI
Question: B1 was tested. Which Km [1] did it give?
Answer: 5.8 ± 0.4 µM

Question: And the kcat [1]?
Answer: 1.5 ± 0.05 s⁻¹

Question: And the kcat/Km [1]?
Answer: 260000 ± 1000 M⁻¹ s⁻¹

Question: And the Km [2]?
Answer: 11 ± 1 µM

Question: What about the kcat [2] of the same molecule?
Answer: 0.96 ± 0.05 s⁻¹

Question: What about the kcat/Km [2] of the same molecule?
Answer: 86000 ± 4000 M⁻¹ s⁻¹

Question: And the Km [3]?
Answer: 9.2 ± 1 µM

Question: And the kcat [3]?
Answer: 0.93 ± 0.06 s⁻¹

Question: What about the kcat/Km [3] of the same molecule?
Answer: 100000 ± 8000 M⁻¹ s⁻¹

Question: And the Km [4]?
Answer: 2.5 ± 0.2 µM

Question: And the kcat [4]?
Answer: 12 ± 0.3 s⁻¹

Question: And the kcat/Km [4]?
Answer: 4.9e+06 ± 300000 M⁻¹ s⁻¹

Question: And the Km [5]?
Answer: 0.49 ± 0.07 µM

Question: What about the kcat [5] of the same molecule?
Answer: 11 ± 0.2 s⁻¹

Question: What about the kcat/Km [5] of the same molecule?
Answer: 2.2e+07 ± 3e+06 M⁻¹ s⁻¹

Question: What about the Km [6] of the same molecule?
Answer: 1 ± 0.2 µM

Question: And the kcat [6]?
Answer: 9 ± 0.5 s⁻¹

Question: And the kcat/Km [6]?
Answer: 8.7e+06 ± 1.2e+06 M⁻¹ s⁻¹

— PMC9883682, “Fatty acids negatively regulate platelet function through formation of noncanonical 15‐lipoxygenase‐derived eicosanoids” (Pharmacology Research & Perspectives, 2023)
